From patent publication US20150098939A1 (Sanofi, published 2015)
Substitutions are numbered along the chain they refer to.

B1: humanized anti-GPVI Fab VL1/VH2 (Fab, V domains shown)
VH: QVQLQESGPGLVAPSQSLSITCTVSGFSLTGYGVNWVRQPPSRGLEWLGMIWGDGSTDYQSTLKSRLSISKDNSKSQVFLKMNSLTTDDTARYYCARDLPMDYWGQGTSVTVSS
VL: DIQMTQSPSSLSASVGGRVTITCKASQDINKYIAWYQHKPGKGPSLLIHYTSTLQPGVPSRFSGSGSGRDYSFSISNLQPEDIATYYCLQYANLLTFGGGTKLEIKR
notes: Recombinant Fab: VH fused to CH1 of human IGHG1 (Q569F4), HC ends in DKTHT; VL fused to human constant kappa (Q502W4); also called VL1 with VH2
B2: humanized anti-GPVI Fab VL1/VH1 (Fab, V domains shown)
VH: B1 VH with N73T
VL: B1 VL
notes: Recombinant Fab: VH fused to CH1 of human IGHG1 (Q569F4), HC ends in DKTHT; VL fused to human constant kappa (Q502W4); also called VL1 with VH1
B3: humanized anti-GPVI Fab VL1/VH5 (Fab, V domains shown)
VH: B1 VH with Y103E
VL: B1 VL
notes: Recombinant Fab: VH fused to CH1 of human IGHG1 (Q569F4), HC ends in DKTHT; VL fused to human constant kappa (Q502W4); also called VL1 with VH5
B4: humanized anti-GPVI Fab VL1/VH4 (Fab, V domains shown)
VH: B1 VH with G31Y
VL: B1 VL
notes: Recombinant Fab: VH fused to CH1 of human IGHG1 (Q569F4), HC ends in DKTHT; VL fused to human constant kappa (Q502W4); also called VL1 with VH4
B5: humanized anti-GPVI Fab VL2/VH2 (Fab, V domains shown)
VH: B1 VH
VL: B1 VL with N93H
notes: Recombinant Fab: VH fused to CH1 of human IGHG1 (Q569F4), HC ends in DKTHT; VL fused to human constant kappa (Q502W4); also called VL2 with VH2
B6: humanized anti-GPVI Fab VL3/VH2 (Fab, V domains shown)
VH: B1 VH
VL: B1 VL with N93L
notes: Recombinant Fab: VH fused to CH1 of human IGHG1 (Q569F4), HC ends in DKTHT; VL fused to human constant kappa (Q502W4); also called VL3 with VH2
B7: humanized anti-GPVI Fab VL1/VH3 (Fab, V domains shown)
VH: B1 VH with Q1E, Q5L, Q16G, S42G, R43K, T86R, Q106L
VL: B1 VL
notes: Recombinant Fab: VH fused to CH1 of human IGHG1 (Q569F4), HC ends in DKTHT; VL fused to human constant kappa (Q502W4); also called VL1 with VH3

Columns and labels:
human GPVI on platelets = biological target: T1, human GPVI on platelets (human, UniProt Q9HCN6 21-339); test: cell-based or functional assay
T1 sequence (looked up): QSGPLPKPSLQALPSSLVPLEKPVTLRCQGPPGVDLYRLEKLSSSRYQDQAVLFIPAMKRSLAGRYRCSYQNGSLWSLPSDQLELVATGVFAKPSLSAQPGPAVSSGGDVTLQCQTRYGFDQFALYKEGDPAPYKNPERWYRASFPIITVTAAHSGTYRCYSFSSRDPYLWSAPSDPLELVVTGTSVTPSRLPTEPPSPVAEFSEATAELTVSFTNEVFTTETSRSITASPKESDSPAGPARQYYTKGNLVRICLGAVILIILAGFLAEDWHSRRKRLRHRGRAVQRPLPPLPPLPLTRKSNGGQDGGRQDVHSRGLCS

[1] = biological target: T2, human GPVI protein, soluble extracellular domain (D1 and D2) (human, UniProt Q9HCN6 21-267); test: SPR (Biacore 3000), human GPVI immobilised, Fab analyte
T2 construct: extracellular domain; also called hGPVI; human glycoprotein VI
T2 sequence (looked up): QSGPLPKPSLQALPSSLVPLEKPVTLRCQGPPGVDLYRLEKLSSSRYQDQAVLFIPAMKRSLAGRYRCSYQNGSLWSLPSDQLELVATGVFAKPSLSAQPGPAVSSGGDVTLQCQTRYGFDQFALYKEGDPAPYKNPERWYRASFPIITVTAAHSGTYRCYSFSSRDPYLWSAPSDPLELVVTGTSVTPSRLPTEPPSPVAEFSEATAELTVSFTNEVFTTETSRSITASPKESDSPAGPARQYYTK
Procedure: Surface plasmon resonance technology on a Biacore 3000 (GE Healthcare) was used for detailed kinetic characterisation of purified antibody fragments. An assay with immobilised human GPVI was used. Typically, 300 RU of GPVI were immobilised on a research grade CM5 chip by amine reactive coupling, resulting in an Rmax of 200 RU for the bound antibody fragment. Binding kinetics were measured over a concentration range between 3.2 to 112 nM in HBS-EP (10 mM HEPES pH 7.4, 150 mM NaCl, 3 mM EDTA, 0.005% Surfactant P20) at a flow rate of 30 μl/min. Chip surfaces were regenerated with 10 mM glycine pH2.0. Kinetic parameters were analysed and calculated in the BIAevaluation program package (version 4.1) using a flow cell without immobilised GPVI as reference. A 1:1 binding model with mass transfer was applied for a global fit of the data for curves corresponding to analyte concentrations from 3-56 nM of Fab fragment.
Note that the Biacore assay used to measure the data in this example is different in terms of immobilized binding partner (GPVI versus the mAb/Fab fragment) and this leads to the different Biacore affinities as reported in Table 5.

hGPVI-hFc fusion protein [2] = biological target: T3, hGPVI-hFc fusion protein (human); test: DELFIA competition assay: Fab preincubated with GPVI-Fc (3 µg/ml), binding to collagen-coated plate, Test 1
T3 construct: also called GPVI-Fc; human GPVI-Fc fusion protein
Procedure: (§1) Collagen coated 384 well plates (Pierce) were blocked with 3% BSA for 2 h. Increasing concentrations of anti GPVI Fab fragments (0.3-20 μg/ml) were incubated with recombinant GPVI (Fusion protein of the extracellular domain of GPVI and Fc-Part of human IgG; 3 μg/ml). The GPVI-Fab mixture was added to collagen coated plates and incubated for 1 h at RT. 384 well plates were washed (DELFIA wash buffer, Perkin Elmer) five times and Eu-labelled anti-human IgG (100 ng/ml Perkin Elmer) was added. Following 1 h incubation at room temperature plates were washed again five times, enhancement solution (Perkin Elmer) was added and incubated for 10 min. Fluorescence was detected at 360/612 nm using a Tecan Ultra reader. Shown in Table 15 are examples of the inhibitory effect of recombinantly produced anti-GPVI Fab fragments on GPVI collagen binding.

hGPVI-hFc fusion protein [3] = biological target: T3, hGPVI-hFc fusion protein; test: DELFIA competition assay: Fab preincubated with GPVI-Fc (3 µg/ml), binding to collagen-coated plate, Test 2
Procedure: as §1

hGPVI-hFc fusion protein [4] = biological target: T3, hGPVI-hFc fusion protein; test: DELFIA competition assay: Fab preincubated with GPVI-Fc (3 µg/ml), binding to collagen-coated plate, Test 3
Procedure: as §1

| Binder | IC50 for inhibition of collagen induced platelet aggregation (human PRP), Test 1 (human GPVI on platelets) [µg/mL] | IC50 for inhibition of collagen induced platelet aggregation (human PRP), Test 2 (human GPVI on platelets) [µg/mL] | IC50 for inhibition of collagen induced platelet aggregation (human PRP), Test 3 (human GPVI on platelets) [µg/mL] | Kd [1] [nM] | koff [1] [s⁻¹] | kon [1] [M⁻¹ s⁻¹] | IC50 (hGPVI-hFc fusion protein [2]) [µg/mL] | IC50 (hGPVI-hFc fusion protein [3]) [µg/mL] | IC50 (hGPVI-hFc fusion protein [4]) [µg/mL] |
| --- | --- | --- | --- | --- | --- | --- | --- | --- | --- |
| B1 | 2.3 | 2 | 1.1 | 0.2 | 3e-05 | 113000 | 1.17 | 0.82 | – |
| B2 | 1.5 | 2.3 | – | 0.4 | 4e-05 | 111000 | 1.1 | 0.75 | 1 |
| B3 | 1.9 | 2.3 | 1.2 | 0.4 | 3e-05 | 81000 | 1.41 | 1.58 | 1.24 |
| B4 | 1.6 | 1.8 | 1.2 | 0.2 | 2e-05 | 124000 | 1.01 | 1.14 | 1.06 |
| B5 | 1.4 | 2.4 | 2.3 | 0.3 | 3e-05 | 108000 | 0.81 | 0.73 | 1.05 |
| B6 | 1.9 | 0.9 | 2.1 | 0.2 | 3e-05 | 132000 | 0.67 | 0.9 | 1.04 |
| B7 | 1.7 | 1.5 | 1.5 | 0.1 | 2e-05 | 148000 | 0.63 | 1.24 | 0.87 |
